{"source": "paper PMC10165364", "about": "“Pathological variants in TOP3A cause distinct disorders of mitochondrial and nuclear genome stability”", "binders": {"B1": {"name": "EMSA substrate 80-mer (ssDNA)", "DNA": "ACCACATTAACAACATAAAACCCTCATTCACACGAGAAAACACCCTCATGTTCATACACCTATCCCCCATTCTCCTCCTA"}}, "conditions_in_all_cases": "protein: recombinant; tags: N-terminal TEV-cleavable 6xHis, cleaved; label: 5' 32P; single strand", "key": {"TOP3A Met575Val": {"molecular_target": "T1, TOP3A Met575Val (Homo sapiens, UniProt Q13472 16-934, M575V)", "T1 sequence": "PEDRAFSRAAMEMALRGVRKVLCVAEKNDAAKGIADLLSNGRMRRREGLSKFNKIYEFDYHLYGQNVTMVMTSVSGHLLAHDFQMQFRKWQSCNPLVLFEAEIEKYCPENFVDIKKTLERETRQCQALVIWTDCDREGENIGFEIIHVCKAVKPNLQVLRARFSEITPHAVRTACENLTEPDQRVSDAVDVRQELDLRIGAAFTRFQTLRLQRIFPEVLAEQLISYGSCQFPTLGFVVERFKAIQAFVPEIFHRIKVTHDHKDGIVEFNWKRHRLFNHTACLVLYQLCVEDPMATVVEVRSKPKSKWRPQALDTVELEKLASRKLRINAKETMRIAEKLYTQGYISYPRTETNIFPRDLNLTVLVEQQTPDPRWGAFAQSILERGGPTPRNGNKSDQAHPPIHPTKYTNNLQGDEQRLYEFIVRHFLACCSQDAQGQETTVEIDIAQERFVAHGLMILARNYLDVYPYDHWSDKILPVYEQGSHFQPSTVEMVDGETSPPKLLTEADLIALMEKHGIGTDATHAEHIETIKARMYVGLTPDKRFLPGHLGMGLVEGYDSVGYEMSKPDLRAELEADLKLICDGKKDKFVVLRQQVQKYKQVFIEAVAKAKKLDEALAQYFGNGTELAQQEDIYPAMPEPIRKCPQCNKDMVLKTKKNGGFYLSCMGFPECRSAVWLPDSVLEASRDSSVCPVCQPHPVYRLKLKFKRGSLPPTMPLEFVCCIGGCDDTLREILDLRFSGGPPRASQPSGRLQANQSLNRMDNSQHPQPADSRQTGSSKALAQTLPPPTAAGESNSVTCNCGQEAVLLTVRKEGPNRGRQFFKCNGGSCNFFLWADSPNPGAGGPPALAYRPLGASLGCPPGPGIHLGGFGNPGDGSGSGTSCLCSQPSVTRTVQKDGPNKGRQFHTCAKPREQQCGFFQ", "test": "EMSA; up to 250 fmol protein; 25 mM HEPES pH 7.5, 70 mM NaCl, 100 ug/ml BSA, 1 mM DTT, 10% glycerol; 10 fmol oligo, 0-250 fmol TOP3A in 20 ul; 37 C 15 min, then ice; 8% native PAGE in 0.5x TBE at 4 C"}, "TOP3A Leu37Val": {"molecular_target": "T2, TOP3A Leu37Val (Homo sapiens, UniProt Q13472 16-934, L37V)", "T2 sequence": "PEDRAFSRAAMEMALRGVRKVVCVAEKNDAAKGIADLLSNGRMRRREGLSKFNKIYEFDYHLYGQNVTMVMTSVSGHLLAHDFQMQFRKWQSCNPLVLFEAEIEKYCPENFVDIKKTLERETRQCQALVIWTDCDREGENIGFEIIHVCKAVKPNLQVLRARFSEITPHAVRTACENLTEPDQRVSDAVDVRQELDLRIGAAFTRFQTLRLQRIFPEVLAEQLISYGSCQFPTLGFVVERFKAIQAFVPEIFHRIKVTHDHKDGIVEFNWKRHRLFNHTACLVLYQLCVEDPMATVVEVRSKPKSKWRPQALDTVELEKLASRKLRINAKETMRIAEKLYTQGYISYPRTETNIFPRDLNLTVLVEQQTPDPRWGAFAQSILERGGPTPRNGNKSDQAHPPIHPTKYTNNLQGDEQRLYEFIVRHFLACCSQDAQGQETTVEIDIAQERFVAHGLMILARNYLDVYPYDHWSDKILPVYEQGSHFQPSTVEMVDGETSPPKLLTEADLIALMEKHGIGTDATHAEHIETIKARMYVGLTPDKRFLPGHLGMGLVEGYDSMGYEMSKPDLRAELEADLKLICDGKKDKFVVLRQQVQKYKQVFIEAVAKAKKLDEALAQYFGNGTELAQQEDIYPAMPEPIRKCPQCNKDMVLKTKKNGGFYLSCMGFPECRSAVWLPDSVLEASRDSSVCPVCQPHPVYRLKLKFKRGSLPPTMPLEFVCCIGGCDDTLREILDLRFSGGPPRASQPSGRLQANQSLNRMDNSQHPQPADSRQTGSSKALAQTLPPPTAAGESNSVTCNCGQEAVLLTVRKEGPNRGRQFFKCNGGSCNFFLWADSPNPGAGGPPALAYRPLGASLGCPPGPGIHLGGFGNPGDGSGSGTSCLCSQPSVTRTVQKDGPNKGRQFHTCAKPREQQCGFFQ", "test": "EMSA; up to 250 fmol protein; 25 mM HEPES pH 7.5, 70 mM NaCl, 100 ug/ml BSA, 1 mM DTT, 10% glycerol; 10 fmol oligo, 0-250 fmol TOP3A in 20 ul; 37 C 15 min, then ice; 8% native PAGE in 0.5x TBE at 4 C"}, "TOP3A Ser810*": {"molecular_target": "T3, TOP3A Ser810* (Homo sapiens, UniProt Q13472 16-809)", "T3 sequence": "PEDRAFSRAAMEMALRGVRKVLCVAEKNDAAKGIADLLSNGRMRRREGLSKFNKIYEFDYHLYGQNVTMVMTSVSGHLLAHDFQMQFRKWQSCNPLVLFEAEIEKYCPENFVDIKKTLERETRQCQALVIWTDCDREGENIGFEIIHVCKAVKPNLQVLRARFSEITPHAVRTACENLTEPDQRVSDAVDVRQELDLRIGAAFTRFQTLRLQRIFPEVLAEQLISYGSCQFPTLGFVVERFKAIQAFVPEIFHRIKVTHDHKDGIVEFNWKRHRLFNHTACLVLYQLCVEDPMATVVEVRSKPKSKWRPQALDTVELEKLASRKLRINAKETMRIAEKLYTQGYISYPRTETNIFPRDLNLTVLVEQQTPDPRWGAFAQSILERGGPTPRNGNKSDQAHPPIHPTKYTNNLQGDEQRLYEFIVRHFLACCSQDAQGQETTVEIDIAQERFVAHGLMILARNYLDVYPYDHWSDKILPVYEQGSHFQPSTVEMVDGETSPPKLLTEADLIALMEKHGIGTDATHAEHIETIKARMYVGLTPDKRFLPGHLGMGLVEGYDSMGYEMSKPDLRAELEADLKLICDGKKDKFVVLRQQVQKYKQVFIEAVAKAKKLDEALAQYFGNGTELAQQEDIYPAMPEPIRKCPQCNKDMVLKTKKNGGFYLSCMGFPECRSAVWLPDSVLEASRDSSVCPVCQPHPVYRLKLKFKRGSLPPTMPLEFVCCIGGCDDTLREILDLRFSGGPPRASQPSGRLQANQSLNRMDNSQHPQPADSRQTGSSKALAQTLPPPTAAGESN", "test": "EMSA; comparable to WT; 25 mM HEPES pH 7.5, 70 mM NaCl, 100 ug/ml BSA, 1 mM DTT, 10% glycerol; 10 fmol oligo, 0-250 fmol TOP3A in 20 ul; 37 C 15 min, then ice; 8% native PAGE in 0.5x TBE at 4 C"}}, "data": [{"binder": "B1", "values": [{"measurement": "binding result", "setting": "TOP3A Met575Val", "result": "no binding"}, {"measurement": "binding result", "setting": "TOP3A Leu37Val", "result": "no binding"}, {"measurement": "binding result", "setting": "TOP3A Ser810*", "result": "binds"}]}]}
